# Results as given in patent US20110289632A1, “METHYLKETONE SYNTHASE, PRODUCTION OF METHYLKETONES IN PLANTS AND BACTERIA” (The Regents of the University of Michigan, priority 2009, published 2011).
# Columns and labels:
# 3-ketomyristoyl-ACP = assay: In vitro thioesterase activity assay; assay type: biochemical
# Protocol: To examine the potential thioesterase activity of ShMKS1 and ShMKS2 in vitro, we added 2.5 μg of each protein to a 500 μL solution of freshly prepared 3-ketomyristoyl-ACP. This protein-linked substrate was prepared using a sequential in vitro enzymatic system involving the addition of multiple starting materials and enzymes and the reaction allowed to proceed for 5 hr (see Examples, Materials, and Methods). Due to the highly unstable nature of 3-ketomyristoyl-ACP, this compound was not further purified but instead the solution in which it was synthesized was used as the “substrate solution” for qualitative in vitro thioesterase activity assays.
# Aliquots of this substrate solution were incubated with buffer, ShMKS1, ShMKS2, or both ShMKS1 and ShMKS2 for 30 min at 23° C. […]
# 3-Ketomyristoyl-ACP was synthesized in a 500 μL reaction volume containing 1,3-bis(tris(hydroxymethyl)methylamino) propane (20 mM, pH 7.0), malonyl-CoA (0.2 mM), lauroyl-CoA (0.2 mM), ShACP (0.1 mM), EcFabD (10 μg) and MtFabH (10 μg). […] Hexane extracts were analyzed by GC-MS as described above. The values for heat-treated samples shown in FIG. 20 were corrected for loss of methylketones during the heating step, as determined by comparisons with standards.
# E. coli cells = assay: GC-MS of methylketones in spent media of E. coli cells expressing ShMKS1, ShMKS2 or ShMKS2 (D79A); assay type: cell-based, Escherichia coli; settings: with or without acid and heat treatment
# Protocol: To test if expression of either ShMKS1 or ShMKS2 (without its transit peptide) in E. coli results in the formation of 3-ketoacids, we collected spent media of bacterial cells expressing each of them (by centrifuging out the cells at the end of the incubation period), heated the spent media at 75° C. for 30 min in the presence of 1 M sulfuric acid, extracted with hexane, then injected the hexane fraction in a GC-MS. […] On the other hand, the spent medium of E. coli cells expressing ShMKS2 contained 5.6±0.32 μg/μL of total methylketones, and the amount of methylketones increased […], to 40.7±2.1 μg/μL, after the spent medium was treated with acid and heat (FIG. 17).
# The coding regions of ShMKS1 and ShMKS2 (minus the transit peptide-encoding region) were each amplified by PCR and inserted into the E. coli expression vector pEXP-TOPO-CT (Invitrogen). The expression vectors were introduced into E. coli BL21 Star (DE3) cells, and gene expression was induced by the addition of 0.5 mM IPTG after the culture optical density at 600 nm had reached 0.65. After induction with IPTG and growth at 18° C. overnight, the cells expressing ShMKS1 or ShMKS2 were centrifuged at 5000 rpm for 15 minutes, and 1-mL aliquots of the spent medium were placed in individual vials for further analysis. […]
# [1] = Treatment of spent medium of ShMKS2-expressing E. coli with purified ShMKS1; assay type: biochemical; settings: 3 μg/mL final concentration, incubated 2 h prior to hexane extraction
# Protocol: Moreover, the treatment with purified ShMKS1 seemed to favor an increase in 2-tridecanone over other methylketones (FIG. 18).
# Aliquots (1 mL) of the spent medium of E. coli expressing ShMKS2, obtained by centrifuging the culture solution after the incubation time at 5,000 rpm for 15 min and collecting the solution without the cells, were treated in the following ways: 1. Incubated with 40 μl (3 μg) of purified MKS1 in phosphate buffer (12.5 mM NaH2PO4, 125 mM NaCl, 2 mM DTT, pH 6.8) for 2 hrs at 30° C. 3. Incubated at 75° C. for 30 min followed by 30 min at 30° C. 4. Incubated with 1 mL of 2M H2SO4 at 75° C. for 30 min followed by 30 min at 30° C. After the various treatments, 1 mL of hexane containing 5 ng/μL linalool as an internal standard was added and the resulting mixture was vortexed and centrifuged at 5000 rpm for 10 min. Two μL of the resulting extract were injected into the GC-MS for determination of methylketones. GC-MS and product analysis were performed as described by Ben-Israel et al, (2009) Multiple biochemical and morphological factors underlie the production of methylketones in tomato trichomes, Plant Physiology 151: 1952-1964.
molecule,measurement,setting,value
"ShMKS1: methylketone synthase 1 from Solanum habrochaites glabratum (SEQ ID NO: 17); recombinant, 3-ketoacid decarboxylase (protein, ShMKS1, recombinant, 3-ketoacid decarboxylase) MEKSMSPFVKKHFVLVHTAFHGAWCWYKIVALMRSSGHNVTALDLGASGINPKQALQIPNFSDYLSPLMEFMASLPANEKIILVGHALGGLAISKAMETFPEKISVAVFLSGLMPGPNIDATTVCTKAGSAVLGQLDNCVTYENGPTNPPTTLIAGPKFLATNVYHLSPIEDLALATALVRPLYLYLAEDISKEVVLSSKRYGSVKRVFIVATENDALKKEFLKLMIEKNPPDEVKEIEGSDHVTMMSKPQQLFTTLLSIANKYK",amount of 2-tridecanone vs buffer-incubated sample treated with acid and heat,"3-ketomyristoyl-ACP; 2.5 μg protein, 30 min at 23° C., directly extracted with hexane","slightly higher, but not significantly so"
same,in vitro thioesterase activity,3-ketomyristoyl-ACP; 3-ketomyristoyl-ACP substrate solution,little or no
same,methylketones in spent medium,E. coli cells,no methylketones
same,levels of extractable methylketones vs spent medium treated with phosphate buffer alone,[1],significantly higher
